The results in this text go back to publication PMC5819227.

In the experiment the target is Enc-I3-01-MhIHL-V54L (engineered ketohydroxyglutarate aldolase from T. maritima fused at its C terminus to the (+)-γ-lactamase mutant MhIHL-V54L from Microbacterium hydrocarbonoxydans) (Thermotoga maritima | Microbacterium hydrocarbonoxydans). Nature of the experiment: negative-stain transmission electron microscopy; purified protein at 1.33 mg/mL adsorbed onto copper grids, stained with 3% uranyl acetate.

On to “Enc-I3-01-MhIHL-V54L (engineered ketohydroxyglutarate aldolase from T. maritima fused at its C terminus to the (+)-γ-lactamase mutant MhIHL-V54L from Microbacterium hydrocarbonoxydans)”, for which the stoichiometry N (as a rule, the number of molecules, sites or subunits per partner or assembly) stood at 60 subunits.
